# Experimental data taken from the DeepSol protein solubility set.
# Test: soluble on expression in E. coli; label from the status in PepcDB or PDB records
row,Sequence,soluble on expression in E. coli
1,MIEINDVNKKYQQTTVLNEINERIPSGGITSIIGPNGAGKSTLLSIMSRLLAADSGNVLFNGLDVAKTSGDKLATILSVLRQENHFTSRLTVSDLVGFGRYPYSRGRLNKNDRQHIDAAMEFLNLMPLKDRYLDELSGGQRQRAYVAMVLCQDTSYILLDEPLNNLDMKHCVAMMKQLRRAADELHKTIILVIHDINFASAYSDHIIAMKNGEVIYRGAPAEIMQPSILEEIFDIKISIEKVQGQHIAVYYR,not soluble
2,MIEITFLGGGGGRFVTITQVRATGGFFIKASKNIYVDPGPGALVRMWRYKIDPRKVDVLFISHRHTDHCNDAEVLVEGMTYGVTKKRGTLIGSKSVVHGDENHTPALSKYHLDALEEVHAPNPGDRFKIGEDEMIITPSLHSDPTTIGFRLKTSYGDISYIPDTEYFEELVKWHDGARVIIAAVTRPRDMRIPFHLSSEDAVYLLKSMKQKPEVFIMTHAGMKMHFAGPYKEAQFIQNLTGVKTYVAKEGFKVSIGKEISVKTLRPARFVLEHHHHHH,soluble
3,MIEQFNFDIRLIFAILNGKVSAAINRKLYRNFRQNGLEISPEQWTVLIFLWEKDGVTQQELCNATFKDKPSMTRLIDNMERQHLVVRISDKKDRRTNLIHLTKDGKELEEKARIIAGQTLKEALHGITLEELSIGQEVLKKVFYNTKD,not soluble
4,MIETEKKEERVLLIGVELQGMDSFDLSMEELASLAKTAGAVVVDSYRQKREKYDSKTFVGSGKLEEIALMVDAEEITTVIVNNRLTPRQNVNLEEVLGVKVIDRMQLILDIFAMRARSHEGKLQVHLAQLKYLLPRLVGQGIMLSRQAGGIGSRGPGESQLELNRRSVRNQITDIERQLKVVEKNRATVREKRLESSTFKIGLIGYTNAGKSTIMNILTSKTQYEADELFATLDATTKSIHLGGNLQVTLTDTVGFIQDLPTELVSSFKSTLEESKHVDLLVHVIDASNPYHEEHEKTVLSIMKDLDMEDIPHLTLYNKADLVEDFTPTQTPYTLISAKSEDSRENLQALLLDKIKEIFEAFTLRVPFSKSYKIHDLESVAILEERDYQEDGEVITGYISEKNKWRLEEFYDLEHHHHHH,not soluble
5,MIFKQNQNYWAVFDANKETLIVQTCSGLGLTAIDHLYPPHILPLDTDNETLGTTVLQALANSRTFVYDSPEDQDFFDTEKIRQRYEDWVAKLCGNLGYKTRRALFKNMMSVDIWLHNGCLKISPSRHVKLEAWNAIDADDVILSLDNSPEEIGAGLKLALSHCR,not soluble
6,MIFKSNFTTRAGLAALALSFAAAGAPSVASAQQAGGKPPQGWFKVCTKQEDNDVCIVQNLLTANNGQLVTAVGLITVSGKVNRKVMQVSVPSARMIPPGVQMQIDGGKGVKLDYAICMPDKCVAEAPLSDALIAQLKKGNEVVFTSVNFQRAPNPIKMSLEGFTGVFDGEPIEQSQLEERQRLLQEEMQKKAEDARKKLEEAQKAAKQQ,not soluble
7,MIFMRKVVAEVSIIPLGKGASVSKYVKKAIEVFKKYDLKVETNAMGTVLEGDLDEILKAFKEAHSTVLNDVDRVVSSLKIDERKDKENTIERKLKAIGEL,soluble
8,MIFRSFFTHRIASMETKRLKLIPACLERAEEAHQAVVRSQKTLEVYLPWVPHVLTLEAMIEGTEKAIANFENFEEELRYYIIEK,not soluble
9,MIFVLGGTSDSLLISDWLTETKRPFILSVATDYGETLAKQHAEKVFCGRLAKEAMLAKWQLEQIKLVIDATHPFATIVSETAMEACKEAGIPYIRFERTSEQTDNTYLVDDINEACKVAAKLGQRIFLTTGSKNLPEFVAGLKQQHIIARILPVSDVIRSAEELGLVADQIIGMKGPFTKEANRTQLEMTQADVLITKESGKQGGFQEKLTAAAELNIPVIVIRRKKLNYPIEINHLTELPEILTQLEV,not soluble
10,MIGKNIKSLRKTHDLTQLEFARIVGISRNSLSRYENGTSSVSTELIDIICQKFNVSYVDIVGEDKMLNPVEDYELTLKIEIVKERGANLLSRLYRYQDSQGISIDDESNPWILMSDDLSDLIHTNIYLVETFDEIERYSGYLDGIERMLEISEKRMVA,soluble
11,MIGNVKMEYASASEEYLTESEMDEYLDDLRSKIPSFIVELLKNNLKNRKLTRPQLDKIVGRVSDLYFGKKPEDKKAAELTNKINDLSQKLDALMKVATISSATKVSDDIKKELNYLDDEKIEVPEISKAVEVPEIIEEPEISIEPVEEPVVEPVKIIEKQTVEPIIEFKEEPKIEKVVSKVPLEIEEGNNMRPELTPAVETTARLQELPEDTLSTMLVFKWLEFLISRVGTGNLIDVLDYYHNLGWVSGKAISKLMKVSKNMKYFHEDIDWKANECMAPEDHVVSLLYIEKLAGRPIAVEELEGMEREINRIKKWAEELQKM,not soluble
12,MIGTAVKELLLEKQETFLVPAENVANVMCLNPLSHAALVLSQVRYSKIPVLDKGDRFVGLIGLTDVVDKMFDLTSVDFEKLNEFTVADVMEVNVPVIGESWDLEEVLHLLVDASFLPVVDDNQRFKGIITRKEILKAVNHMAHELEKHHLVLPKSEEEMKVI,not soluble
13,MIGYEFFVSEKLENCKYKYIKAINDYIKQEKSHIIGIDLGKYHYLTASNIDRSFVFVDKHNTLFHLFRKYERRIANKQYDNSEAYSKLKTGLKSHINQVVNEMLEQTSNRFQTVFALDDHGSSHLSFPSLVFDLTYFAIKQRKNESDEILIVDESFTSIECPICHDRNQYNRTNKNKFKCTKCGFIHQNNDIVAASNIAKKGQLLNSLEHHHHHH,not soluble
14,MIHGIGVDLIEIDRIQALYSKQPKLVERILTKNEQHKFNNFTHEQRKIEFLAGRFATKEAFSKALGTGLGKHVAFNDIDCYNDELGKPKIDYEGFIVHVSISHTEHYAMSQVVLEKSAF,not soluble
15,MIIGSRRARSDKYVKIAHLMQCTQPWFNHFLPEPESPQASTYKMLKPVSWLPRPVKSVSFYPSRRTAVARNGHNLRLQWRGPLPELHWHSRSLQHTQH,not soluble
16,MIIGYARVSSLDQNLERQLENLKTFGAEKIFTEKQSGKSIENRPILQKALNFVRMGDRFIVESIDRLGRNYNEVIHTVNYLKDKEVQLMITSLPMMNEVIGNPLLDKFMKDLIIQILAMVSEQERNESKRRQAQGIQVAKEKGVYKGRPLLYSPNAKDPQKRVIYHRVVEMLEEGQAISKIAKEVNITRQTVYRIKHDNGLSSHHHHHH,soluble
17,MIIKGRAHKFGDDVDTDAIIPGPYLRTTDPYELASHCMAGIDENFPKKVKEGDVIVAGENFGCGSSREQAVIAIKYCGIKAVIAKSFARIFYRNAINVGLIPIIANTDEIKDGDIVEIDLDKEEIVITNKNKTIKCETPKGLEREILAAGGLVNYLKKRKLIQSKKGVKT,soluble
18,MIILMSKPLSEKKTSNNISDLIYGLLKEDIFNFVLKPGQRFTETDLSERYEASRTPIRQALYRLEQEGFVHVHFRSGWEIRPLEFKYYQELFDLRMILEKEAVKRLCELEHPEQLPALIELKKMWLIAPVDYLTDTKTLVLQSEDFHCALVRAAGNQQIAKIHQEASEKIRIVLSLGAMKEFDIAHAYQDHGAILQCILNKDAEQAIHLAEHHVLESIHEVKNITLQMISAIH,not soluble
19,MIISAEGDVSIHHCFEAMLISLQEDYRQNTLRQLSRDDIKAGINYVKHYGKYKERTVRVLITALEAPQLYTACFSSNHGIKELAYQLEALGENRTRITYSYDYHPLDIFQKANQFIVGKLFKKSLERQSQAQLAALIQYAKQLQQPSSL,not soluble
20,MIITKNISLPELYQEWLDLKIMPSNRSDVTKKKYLSRKVTLEKLFGDKPISQIRPSEYQRIMNNYGQRVSRNFLGRLNTGVKQSLQMAIADKVMIEDFTQNVELFSTVKLEHHHHHH,soluble
21,MIKIDDEAITFVVQGPVQASASRQQIAGITEQCLNSIRRFFPKSTIILSTWKGQPLDGLDYDQVLELDDPGANTVFYDGQPIKLNNNRQMYSTHMGLKAVKTPYAVKLRTDNLLTGRQFVELYERYADLPRAQNYQFLTQRVLTSSTFFISSHYGHPVHFHKSDLFDFGLTQDLLTIWSDRWIPELHFTLKPGYKARHPATEQVLCLNWISALLDEEHHIESKTCDHAGLGENFWPQFMANNLLMDCPENIGLDVTERFYKRGNLALEYDLKDWLHLNQITSIPYDKKRLYRYYRNQIGRILKKIHSFN,not soluble
22,MIKSALLVLEDGTQFHGRAIGAEGTAVGEVVFNTSMTGYQEILTDPSYSRQIVTLTYPHIGNVGTNASDEESSAVHAQGLVIRDLPLIASNYRNEEGLSEYLKRHNIVAIADIDTRKLTRLLREKGAQNGCIIVGELSDAALALEKAKAFPGLKGMDLAKEVTTKEMYQWLQGSWTLEGDLPAAKQPEDLPFHVVAYDYGVKRNILRMLVDRGCRLTVVPAQTPAEDVLKLNPDGIFLSNGPGDPEPCDYAITAIKRFLETDIPVFGICLGHQLLALASGAKTVKMKFGHHGGNHPVKDLDASCVMITAQNHGFAVDETSLPSNLRTTHVSLFDGSLQGLHRTDKAAFSFQGHPEASPGPHDAAPLFDHFIELIEAYRASSVSLNCSNSHK,not soluble
23,MIKVDHRPLYLQVIDKLKHDMEAGVYEEGEKLPSEFELSKQLGVSRATLREALRLLEEEGVVVRRHGVGTFVHTKPLFSAGIEELYSVTDMIRHADMEPGTIFLSSYQIEATDDDKRRFQTDNLDQLMMIERVRTADGVPIVYCLDKLPAELIGQHSVHEINSILDHLESGSDRMITHAVTTIEPIGFHEKVSEILECEAETGLLLLKQMHYDQYDTPVLYSYNYFRADKFTFHVVRKRVKA,not soluble
24,MIKVRVPDFSDKKFSDRWRYCVGTGRLGLALQKEYIETLKYVKENIDFKYIRGHGLLCDDVGIYREDVVGDEVKPFYNFTYIDRIFDSFLEIGIRPFVEIGFMPKKLASGTQTVFYWEGNVTPPKDYEKWSDLVKAVLHHFISRYGIEEVLKWPFEIWNEPNLKEFWKDADEKEYFKLYKVTAKAIKEVNENLKVGGPAICGGADYWIEDFLNFCYEENVPVDFVSRHAYTSKQGEYTPHLIYQEIMPSEYMLNEFKTVREIIKNSHFPNLPFHITEYNTSYSPQNPVHDTPFNAAYIARILSEGGDYVDSFSYWTFSDVFEERDVPRSQFHGGFGLVALNMIPKPTFYTFKFFNAMGEEMLYRDEHMLVTRRDDGSVALIAWNEVMDKTENPDEDYEVEIPVRFRDVFIKRQLIDEEHGNPWGTWIHMGRPRYPSKEQVNTLREVAKPEIMTSQPVANDGYLNLKFKLGKNAVVLYELTERIDESSTYIGLDDSKINGY,soluble
25,MIKVVGLGPGSKNALTLGTLEAVKNSQNIFFRTKKHPVVEYFDEIGIKYSTYDDKYETGESFDEVYDFIARDLVSKAKELKDIVYAVPGHPLVAEKSVQILIELCEKENIKVDIVPAVSFIDALMESLKIDPVKGLKIVDAFDIKNQILDKRLGIVITQVYNSFIASDVKLALLEYYKDDTEIYFVRAAGIENEESVRKIPLYELDRQSDIDYLTSVYVPCDINNNKDFYDLLNIMEILRGENGCPWDREQSHDTIKRALIEECYEAVEAIEKNDDDMMVEELGDVLFQVVFHAKIGKDEGYFNINDVISGICNKMIERHPHVFKNEQIKNSTEVLQKWDEIKRKQQDLNSYTEEMKHIPKILPALIRAEKVQKKASKVGFDFRNVEEALDKVLEETREVKDVYKGIIRDRIAEEVGDLIFSVVNIARLLDIDSEFALNYTIDKFIKRFYYIEKAAKDKNLKIESMSLEEMNALWDEAKLKIQ,not soluble
26,MILFVGFLLMEIVMPQISRTALVPYSAEQMYQLVNDVQSYPQFLPGCTGSRILESTPGQMTAAVDVSKAGISKTFTTRNQLTSNQSILMNLVDGPFKKLIGGWKFTPLSQEACRIEFHLDFEFTNKLIELAFGRVFKELAANMVQAFTVRAKEVYSARLEHHHHHH,not soluble
